Assay results as given in PMC7752791, “Dehydroquinate dehydratase/shikimate dehydrogenases involved in gallate biosynthesis of the aluminum-tolerant tree species Eucalyptus camaldulensis” (Planta, 2020).

Tests used:
Assay type in all cases: biochemical, Eucalyptus camaldulensis
[1] = substrate: O=C1C[C@@](O)(C(=O)O)C[C@@H](O)[C@@H]1O; assay: HPLC of 3-DHS formed, Michaelis-Menten fit; details: DQD activity, no cofactor, pH 7, 30 °C
Text: HPLC of 3-DHS formed, Michaelis-Menten fit on EcDQD/SDH1

[2] = substrate: O=C(O)C1=C[C@@H](O)[C@@H](O)[C@H](O)C1; assay: purified protein; details: shikimate oxidation with NADP+, pH 9, 30 °C
[3] = substrate: O=C(O)C1=CC(=O)[C@@H](O)[C@H](O)C1; assay: purified protein; details: shikimate formation with NADPH
[4] = substrate: NC(=O)C1=CN([C@@H]2O[C@H](COP(=O)(O)OP(=O)(O)OC[C@H]3O[C@@H](n4cnc5c(N)ncnc54)[C@H](OP(=O)(O)O)[C@@H]3O)[C@@H](O)[C@H]2O)C=CC1; assay: purified protein; details: shikimate formation from 3-DHS, varied: cofactor
[5] = substrate: NC(=O)c1ccc[n+]([C@@H]2O[C@H](COP(=O)(O)OP(=O)(O)OC[C@H]3O[C@@H](n4cnc5c(N)ncnc54)[C@H](OP(=O)(O)O)[C@@H]3O)[C@@H](O)[C@H]2O)c1; assay: purified protein; details: shikimate oxidation, pH 9, 30 °C, varied: cofactor
[6] = substrate: O=C1C[C@@](O)(C(=O)O)C[C@@H](O)[C@@H]1O; assay: purified protein; details: quinate formation with NADH, pH 7.5, 30 °C
[7] = substrate: O=C(O)[C@]1(O)C[C@@H](O)[C@@H](O)[C@H](O)C1; assay: purified protein; details: quinate oxidation with NAD+, pH 9, 30 °C
[8] = substrate: NC(=O)c1ccc[n+]([C@@H]2O[C@H](COP(=O)(O)OP(=O)(O)OC[C@H]3O[C@@H](n4cnc5c(N)ncnc54)[C@H](O)[C@@H]3O)[C@@H](O)[C@H]2O)c1; assay: purified protein; details: quinate oxidation, pH 9, 30 °C, varied: cofactor
[9] = substrate: NC(=O)C1=CN([C@@H]2O[C@H](COP(=O)(O)OP(=O)(O)OC[C@H]3O[C@@H](n4cnc5c(N)ncnc54)[C@H](O)[C@@H]3O)[C@@H](O)[C@H]2O)C=CC1; assay: purified protein; details: quinate formation from 3-DHQ, pH 7.5, 30 °C, varied: cofactor
[10] = substrate: O=C1C[C@@](O)(C(=O)O)C[C@@H](O)[C@@H]1O; assay: HPLC of 3-DHS formed, Michaelis-Menten fit; details: DQD activity, no cofactor, pH 7, 30 °C; remark: listed apart in the source
Text: HPLC of 3-DHS formed, Michaelis-Menten fit on EcDQD/SDH3

[11] = substrate: O=C1C[C@@](O)(C(=O)O)C[C@@H](O)[C@@H]1O; assay: HPLC of 3-DHS formed, Michaelis-Menten fit; details: DQD activity, no cofactor, pH 7, 30 °C; remark: listed apart in the source
Text: HPLC of 3-DHS formed, Michaelis-Menten fit on EcDQD/SDH2

| Protein | Km [2] | Vmax [2] | kcat [2] | kcat/Km [2] | Km ([3]; pH 6.5, 30 °C) | Vmax ([3]; pH 6.5, 30 °C) | kcat ([3]; pH 6.5, 30 °C) | kcat/Km ([3]; pH 6.5, 30 °C) | Km ([4]; pH 6.5, 30 °C) | Vmax ([4]; pH 6.5, 30 °C) | kcat ([4]; pH 6.5, 30 °C) | kcat/Km ([4]; pH 6.5, 30 °C) | Km [5] | Vmax [5] | kcat [5] | kcat/Km [5] | other results |
| --- | --- | --- | --- | --- | --- | --- | --- | --- | --- | --- | --- | --- | --- | --- | --- | --- | --- |
| EcDQD/SDH1 (Eucalyptus camaldulensis) (protein, genome locus by order of listing EcC055014.20) ASTGNVLLATSSAPHEMESGAVRKNSTLICVPVMADSVEEMVIQLDKAKSSGADLVEIRVDSLKNLSPHEDLKTLIKASALPTLFTYRPKWEGGQYDGDDKPRLETLRLAMELGADYIDVELKVASEFNASIQGRKPEKCKVIVSSHNYENTPSAEDLSNLVARIQAAGADIVKIATTALDITDVERMFHITVHSQVSSVPVIGMVMGERGLISRVLCAKFGGFLTFGTLESGVVSAPGQPTIKDLLDLYNFRSIGPDTKVFGIIGKPVGHSKSPLLYNQAFKSAGFDGVFLHLLVDDVASFLQTYSSTDFAGFSCTIPHKEAAVKCCDEVDPVAKSIGAVNCIIRRQSDAKLFGYNTDYVGAISAIEDGLRGSQNGNSAGASPLNGKLFVVIGAGGAGKALGYGAKEKGARVVIANRTYDRARELAETIGGDALSLADLENFHPEDGMILANTTSIGMQPKVDETPIPKHALKHYSLVFDAVYTPKITRLLKEAEECGATIVSGLEMFIGQAYGQYERYTGLPAPKELFRKIMSKY | 32.6 ± 1.9 µM | 780 ± 6 µmol/min/mg | 755 ± 6 s⁻¹ | 2.32e+07 M⁻¹ s⁻¹ | 381 ± 34 µM | 318 µmol/min/mg | 307 ± 5 s⁻¹ | 805000 M⁻¹ s⁻¹ | 49.5 ± 3.6 µM | 404 µmol/min/mg | 389 ± 9 s⁻¹ | 7.86e+06 M⁻¹ s⁻¹ | 56.5 ± 2.3 µM | 822 ± 6 µmol/min/mg | 792 ± 6 s⁻¹ | 1.4e+07 M⁻¹ s⁻¹ | Km [1]: 449 ± 22 µM; Vmax [1]: 63 µmol/min/mg; kcat [1]: 60.4 ± 0.7 s⁻¹; kcat/Km [1]: 135000 M⁻¹ s⁻¹ |
| EcDQD/SDH4a (EcQDHa) (Eucalyptus camaldulensis) (protein) GSLSLSSVGLTMVCAPVMGESVDQVVEEMHKAKAQGADVVEVRLDCIKQFQAHQDLEIILKSKPLPVIIVYRPKCEGGLYEGDETARLEALRSALKLGADYVDFELKVAAELMSKQNKLHCGGTKVIVSCFLDGVTPSKEELSNLATHMKATGADIIKIVTSASNITELAGLFHLLSYSQMPVVAYAVGERGLISQLLSPKFGSTLVYGSIEGMAVPGLPTLESLRKTYKVEHINSDTTVFGLISKPVGHSKGPILHNPTLRHMNFNGLYVPMFVDNLKEFFEVYSTPDFAGFSVGFPYKEAVIQFCDEVHPLAQTIGAVNTIVRRPSDGKLIGYNTDCEASVTAMEDALQECRCINGEKSLVSPLAGKEFVLVGAGGAGRALAFGAKTRGARIIIFDIDFERAKMLAHAVSGEARPFGDLPYFQPEKGSILANATPIGMHPNKDRIPVSEASLGVFQLVFDAVYTPRKTTLLKEAEAAGAITVSGVEMFLRQAIGQFNLFTGGEAPKEFMREIVLAKF |  |  |  |  |  |  |  |  |  |  |  |  |  |  |  |  | Km [6]: 1400 ± 120 µM; Vmax [6]: 300 µmol/min/mg; kcat [6]: 281 ± 7 s⁻¹; kcat/Km [6]: 201000 M⁻¹ s⁻¹; Km [7]: 164 ± 10 µM; Vmax [7]: 135 µmol/min/mg; kcat [7]: 127 ± 2 s⁻¹; kcat/Km [7]: 771000 M⁻¹ s⁻¹; Km [8]: 53.7 ± 1.7 µM; Vmax [8]: 148 µmol/min/mg; kcat [8]: 139 ± 1 s⁻¹; kcat/Km [8]: 2.59e+06 M⁻¹ s⁻¹; Km [9]: 102 ± 9 µM; Vmax [9]: 318 µmol/min/mg; kcat [9]: 298 ± 8 s⁻¹; kcat/Km [9]: 2.92e+06 M⁻¹ s⁻¹ |
| EcDQD/SDH3 (Eucalyptus camaldulensis) (protein, genome locus by order of listing EcC054875.120) GSVPFTTSDLQTSTSGFRSSPTLLCTPLMGTTVDQMLIEMRKAKEIGADLVEIRLDCLRNFNPHQDLQILIKQSPLPTLVTYRPVWEGGQYEGDESKRQDALRLAMQLGAHYIDVELEVAHDFNSSILGKKPDNFKIIVSSHNFHNTPSAEAIGNLVARIQATGADIAKIATTALDITDCARIFQITVHSQIPIIGIVMGERGLISRILSPKFGGYLTYGALEAGAISAPGQPTAKDLLDLYNFRLIRPDTKVYGIIGKPVGHSKSPLLFNASYKSVGLNAVYLHFLVDDVEKFFNTYSAVDFASGCSCTIPHKEAALKCMDEIDPIAKKIGAINNIVRRPDGTLTAFNTDYIGAISAIEDGLRGLNGVSSGASPLAGKLFVVLGAGGAGKSLAYGAAQKGARVVVANRTFERAKELADKVGGQAMTLAEVENFHPEEGMVLANTTSVGMKPKIDETPLAKHALKHYCLVFDAIYTPKDTRLLREARETGAVIVYGTEMLIRQGFEQYKNFTGLPAPEELFRTLMEKHA | 3640 ± 360 µM | 84 µmol/min/mg | 80.7 ± 2.9 s⁻¹ | 22200 M⁻¹ s⁻¹ | 878 ± 106 µM | 60 µmol/min/mg | 57.6 ± 1.7 s⁻¹ | 65600 M⁻¹ s⁻¹ | 23.1 ± 1.4 µM | 77.4 µmol/min/mg | 74.1 ± 1.2 s⁻¹ | 3.21e+06 M⁻¹ s⁻¹ | 41.5 ± 2.1 µM | 73.2 µmol/min/mg | 70.2 ± 0.6 s⁻¹ | 1.69e+06 M⁻¹ s⁻¹ | Km [10]: 882 ± 42 µM; Vmax [10]: 3.83 µmol/min/mg; kcat [10]: 3.67 ± 0.05 s⁻¹; kcat/Km [10]: 4160 M⁻¹ s⁻¹ |
| EcDQD/SDH2 (Eucalyptus camaldulensis) (protein, genome locus by order of listing EcC035206.10) TLSSIPLTAADLQIPAGGRRNSTLLCAPVMGESVDQMLGQIRAAKEQGADLVEVRLDFLKSFSPKQDLEILLKQSALPTLVTYRPKWEGGQYEGDDSQRLDALRLALELGADYVDVELQVAQEFFSSIQGKKPEKAKIIVSSHNYQNTPSSEELGNLVAKIQATGADIVKIATTALDISDCPRIFEVLAHSQVPTIAIAMGERGLISRILAAKFGGYLTFGAIEAGVVSAPGQPSIKDLLDLYNLRQLGPDTKVHGVIGKPIGHSKSPHLYNAAFKSVNFNGIYLPLLVDNVANFINAYSSPDFVGYSYTIPHKEDGLRCCDEVDPIAKAIGAISQMIRRPTDGKMIGYNVDYLGAIAAIEEALRASNGASPTTTSPLAGKLFVVIGAGGAGKALAYGAMEKGARVVVANRTYEKAKELASKVGGQAITLAELENFHPEDGMVLANTTSVGMKPNVDLTPLPKNALSRYCLVFDAIYTPKLTRLLREAQEVGAIPVYGTEMFINQAFVQFERFTGYPAPKQLIRDTLVKNS | 2050 ± 200 µM | 153 µmol/min/mg | 146 ± 4 s⁻¹ | 71300 M⁻¹ s⁻¹ |  |  |  |  |  |  |  |  | 65.2 ± 2.7 µM | 141 µmol/min/mg | 135 ± 1 s⁻¹ | 2.07e+06 M⁻¹ s⁻¹ | Km [11]: 322 ± 13 µM; Vmax [11]: 32.4 µmol/min/mg; kcat [11]: 30.9 ± 0.3 s⁻¹; kcat/Km [11]: 96200 M⁻¹ s⁻¹; Km ([3]; pH 8.5, 30 °C): 8830 ± 1210 µM; Vmax ([3]; pH 8.5, 30 °C): 49.3 µmol/min/mg; kcat ([3]; pH 8.5, 30 °C): 47 ± 3.3 s⁻¹; kcat/Km ([3]; pH 8.5, 30 °C): 5320 M⁻¹ s⁻¹; Km ([4]; pH 8.5, 30 °C): 4.38 ± 0.43 µM; Vmax ([4]; pH 8.5, 30 °C): 28.9 µmol/min/mg; kcat ([4]; pH 8.5, 30 °C): 27.6 ± 0.5 s⁻¹; kcat/Km ([4]; pH 8.5, 30 °C): 6.3e+06 M⁻¹ s⁻¹ |
